Biological target: T1, MMP substrate, 5-FAM-GGPLGVRGKK(CPQ2)-PEG2-C, presented on the iron-oxide nanoparticle (ABN) surface (not fully specified)
T1 chain: GGPLGVRGKKC

B1: mouse MMP9 (protein)
chain: APYQRQPTFVVFPKDLKTSNLTDTQLAEAYLYRYGYTRAAQMMGEKQSLRPALLMLQKQLSLPQTGELDSQTLKAIRTPRCGVPDVGRFQTFKGLKWDHHNITYWIQNYSEDLPRDMIDDAFARAFAVWGEVAPLTFTRVYGPEADIVIQFGVAEHGDGYPFDGKDGLLAHAFPPGAGVQGDAHFDDDELWSLGKGVVIPTYYGNSNGAPCHFPFTFEGRSYSACTTDGRNDGTPWCSTTADYDKDGKFGFCPSERLYTEHGNGEGKPCVFPFIFEGRSYSACTTKGRSDGYRWCATTANYDQDKLYGFCPTRVDATVVGGNSAGELCVFPFVFLGKQYSSCTSDGRRDGRLWCATTSNFDTDKKWGFCPDQGYSLFLVAAHEFGHALGLDHSSVPEALMYPLYSYLEGFPLNKDDIDGIQYLYGRGSKPDPRPPATTTTEPQPTAPPTMCPTIPPTAYPTVGPTVGPTGAPSPGPTSSPSPGPTGAPSPGPTAPPTAGSSEASTESLSPADNPCNVDVFDAIAEIQGALHFFKDGWYWKFLNHRGSPLQGPFLTARTWPALPATLDSAFEDPQTKRVFFFSGRQMWVYTGKTVLGPRSLDKLGLGPEVTHVSGLLPRRLGKALLFSKGRVWRFDLKSQKVDPQSVIRVDKEFSGVPWNSHDIFQYQDKAYFCHGKFFWRVSFQNEVNKVDHEVNQVDDVGYVTYDLLQCP
- cleavage of the substrate: it was confirmed that mouse MMP9 cleaves the ABN MMP9 substrate
